In patent publication US20250368745A1 (published 2025):
Where “and” joins values, the source holds several entries; their conditions need not be identical. Equal values may be shown once.

T1: human IL-18BP (human, UniProt O95998 31-194)
T1 construct: UniProt printed as 095998; also called hIL-18BP
T1 sequence: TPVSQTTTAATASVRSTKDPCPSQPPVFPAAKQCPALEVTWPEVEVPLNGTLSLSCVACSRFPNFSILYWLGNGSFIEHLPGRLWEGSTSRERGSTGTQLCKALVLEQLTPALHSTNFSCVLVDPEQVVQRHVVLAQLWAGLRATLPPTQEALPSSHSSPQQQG


Target: T1, human IL-18BP
Assay: BLI, apparent KD

Binder | Kd
SA301a HC-Y59D (antibody, name in Kabat numbering, V domains shown, IgG1 kappa) VH: QVQLQESGPGLVKPSQTLSLTCTVSGYSITSDYNSHWIRQPPGKGLEWIGYIHYSGSTNDNPSLKSRVTISRDTSKNQFSLKLSSVTAADTAVYYCARNYGSIYVNYFDYWGQGTLVTVSS VL: EIVLTQSPATLSLSPGERATLSCSASSSVSYMYWYQQKPGQAPRPLIYRTSNLASGIPARFSGSGSGTDFTLTISSLEPEDFAVYYCQQYHSYPTFGGGTKVEIK | 1.25 nM and 0.63 nM
SA301a HC-Y59E (antibody, name in Kabat numbering, V domains shown, IgG1 kappa) VH: QVQLQESGPGLVKPSQTLSLTCTVSGYSITSDYNSHWIRQPPGKGLEWIGYIHYSGSTNENPSLKSRVTISRDTSKNQFSLKLSSVTAADTAVYYCARNYGSIYVNYFDYWGQGTLVTVSS VL: EIVLTQSPATLSLSPGERATLSCSASSSVSYMYWYQQKPGQAPRPLIYRTSNLASGIPARFSGSGSGTDFTLTISSLEPEDFAVYYCQQYHSYPTFGGGTKVEIK | 0.18 nM
SA301a HC-Y59N (antibody, name in Kabat numbering, V domains shown, IgG1 kappa) VH: QVQLQESGPGLVKPSQTLSLTCTVSGYSITSDYNSHWIRQPPGKGLEWIGYIHYSGSTNNNPSLKSRVTISRDTSKNQFSLKLSSVTAADTAVYYCARNYGSIYVNYFDYWGQGTLVTVSS VL: EIVLTQSPATLSLSPGERATLSCSASSSVSYMYWYQQKPGQAPRPLIYRTSNLASGIPARFSGSGSGTDFTLTISSLEPEDFAVYYCQQYHSYPTFGGGTKVEIK | 0.79 nM
SA301a HC-Y59L (antibody, name in Kabat numbering, V domains shown, IgG1 kappa) VH: QVQLQESGPGLVKPSQTLSLTCTVSGYSITSDYNSHWIRQPPGKGLEWIGYIHYSGSTNLNPSLKSRVTISRDTSKNQFSLKLSSVTAADTAVYYCARNYGSIYVNYFDYWGQGTLVTVSS VL: EIVLTQSPATLSLSPGERATLSCSASSSVSYMYWYQQKPGQAPRPLIYRTSNLASGIPARFSGSGSGTDFTLTISSLEPEDFAVYYCQQYHSYPTFGGGTKVEIK | 0.42 nM
SA301a HC-Y59K (antibody, name in Kabat numbering, V domains shown, IgG1 kappa) VH: QVQLQESGPGLVKPSQTLSLTCTVSGYSITSDYNSHWIRQPPGKGLEWIGYIHYSGSTNKNPSLKSRVTISRDTSKNQFSLKLSSVTAADTAVYYCARNYGSIYVNYFDYWGQGTLVTVSS VL: EIVLTQSPATLSLSPGERATLSCSASSSVSYMYWYQQKPGQAPRPLIYRTSNLASGIPARFSGSGSGTDFTLTISSLEPEDFAVYYCQQYHSYPTFGGGTKVEIK | 0.12 nM
SA301a HC-Y59F (antibody, name in Kabat numbering, V domains shown, IgG1 kappa) VH: QVQLQESGPGLVKPSQTLSLTCTVSGYSITSDYNSHWIRQPPGKGLEWIGYIHYSGSTNFNPSLKSRVTISRDTSKNQFSLKLSSVTAADTAVYYCARNYGSIYVNYFDYWGQGTLVTVSS VL: EIVLTQSPATLSLSPGERATLSCSASSSVSYMYWYQQKPGQAPRPLIYRTSNLASGIPARFSGSGSGTDFTLTISSLEPEDFAVYYCQQYHSYPTFGGGTKVEIK | 0.87 nM
SA301a HC-Y59G (antibody, name in Kabat numbering, V domains shown, IgG1 kappa) VH: QVQLQESGPGLVKPSQTLSLTCTVSGYSITSDYNSHWIRQPPGKGLEWIGYIHYSGSTNGNPSLKSRVTISRDTSKNQFSLKLSSVTAADTAVYYCARNYGSIYVNYFDYWGQGTLVTVSS VL: EIVLTQSPATLSLSPGERATLSCSASSSVSYMYWYQQKPGQAPRPLIYRTSNLASGIPARFSGSGSGTDFTLTISSLEPEDFAVYYCQQYHSYPTFGGGTKVEIK | 1.59 nM
SA301a HC-Y59Q (antibody, name in Kabat numbering, V domains shown, IgG1 kappa) VH: QVQLQESGPGLVKPSQTLSLTCTVSGYSITSDYNSHWIRQPPGKGLEWIGYIHYSGSTNQNPSLKSRVTISRDTSKNQFSLKLSSVTAADTAVYYCARNYGSIYVNYFDYWGQGTLVTVSS VL: EIVLTQSPATLSLSPGERATLSCSASSSVSYMYWYQQKPGQAPRPLIYRTSNLASGIPARFSGSGSGTDFTLTISSLEPEDFAVYYCQQYHSYPTFGGGTKVEIK | 0.35 nM
SA301a HC-Y59P (antibody, name in Kabat numbering, V domains shown, IgG1 kappa) VH: QVQLQESGPGLVKPSQTLSLTCTVSGYSITSDYNSHWIRQPPGKGLEWIGYIHYSGSTNPNPSLKSRVTISRDTSKNQFSLKLSSVTAADTAVYYCARNYGSIYVNYFDYWGQGTLVTVSS VL: EIVLTQSPATLSLSPGERATLSCSASSSVSYMYWYQQKPGQAPRPLIYRTSNLASGIPARFSGSGSGTDFTLTISSLEPEDFAVYYCQQYHSYPTFGGGTKVEIK | 0.08 nM
